The text below walks through data of US20190055527A1 (KYUSHU UNIVERSITY NATIONAL UNIVERSITY, published 2019).

Assay in all cases: SPR (BIAcore J), PfuPCNA immobilised on CM5 chip, polymerase variant as analyte, 25° C.
On the technique in general: Surface plasmon resonance follows binding to a sensor surface in real time, without labels.

In experiment [1] the target is T1, Taq83 (PIP-L15-Taq) (Thermus aquaticus, UniProt P19821 1-832).
T1 construct: N-terminal PfuRFCL PIP box, 15-residue Ser/Gly linker, Taq DNA polymerase; also called DNA polymerase variant Taq83
The procedure:
(§1) In the surface plasmon resonance (SPR) analysis, BIAcore J (manufactured by BIACORE) was used. A PCNA from Pyrococcus furiosus (J. Bacteriology, 181, 6591-6599, 1999: hereinafter referred to as PfuPCNA) was immobilized on a CM5 sensor chip (manufactured by GE Healthcare) by amine coupling, and the measurement was carried out under the conditions of 25° C., a flow rate of 30 μL/minutes, and a solution E (10 mM Tris-HCl, 50 mM KCl, 1.5 mM MgCl₂, pH 8.3). A sample solution of Taq81 to Taq85 diluted to 10, 20, 40, 80, 160, or 320 nM or a sample solution of Taq94 diluted to 125 nM, 250 nM, 500 nM, 1 μM, or 2 μM was each added for 2 minutes. The sensorgrams obtained were analyzed by BIA evaluation program, and the dissociation constants (Kd) between Taq81 to Taq85 and PfuPCNA and between Taq94 and PfuPCNA were calculated.
(§2) The dissociation constants (Kd) with respect to the bindings between five kinds of Taq DNA polymerases to which PIP box was added at an N-terminal, each having a different length of a linker peptide (Taq81, Taq82, Taq83, Taq84, and Taq85), and PfuPCNA were calculated. As a result, the values were 7.1×10⁻⁷ M, 4.4×10⁻⁷ M, 2.4×10⁻⁷ M, 2.5×10⁻⁷ M, and 2.0×10⁻⁷ M, which were nearly of the same level regardless of the lengths of the linker peptides.

Experiment [2] concerns the target T2, Taq82 (PIP-L10-Taq) (Thermus aquaticus, UniProt P19821 1-832).
T2 construct: N-terminal PfuRFCL PIP box, 10-residue Ser/Gly linker, Taq DNA polymerase; also called DNA polymerase variant Taq82
As for the experimental part:
as §1, §2

Experiment [3] deals with T3, Taq94 (Taq-L15-PIP) (Thermus aquaticus, UniProt P19821 1-832).
T3 construct: Taq DNA polymerase, 15-residue Ser/Gly linker, PfuRFCL PIP box at the C-terminus; also called DNA polymerase variant Taq94
The procedure: as §1, §2

Experiment [4] concerns the target T4, Taq85 (PIP-L47-Taq) (Thermus aquaticus, UniProt P19821 1-832).
T4 construct: N-terminal PfuRFCL PIP box, 47-residue Ser/Gly linker, Taq DNA polymerase; also called DNA polymerase variant Taq85
The procedure:
as §1, §2

Experiment [5] deals with T5, Taq81 (PIP-L5-Taq) (Thermus aquaticus, UniProt P19821 1-832).
T5 construct: expressed in E. coli and purified; also called DNA polymerase variant Taq81
The procedure: as §1, §2

Experiment [6] deals with T6, Taq84 (PIP-L35-Taq) (Thermus aquaticus, UniProt P19821 1-832).
T6 construct: N-terminal PfuRFCL PIP box, 35-residue Ser/Gly linker, Taq DNA polymerase; also called DNA polymerase variant Taq84
The procedure: as §1, §2

T5 sequence (P19821 other isoform, or with tags, fused parts or gaps): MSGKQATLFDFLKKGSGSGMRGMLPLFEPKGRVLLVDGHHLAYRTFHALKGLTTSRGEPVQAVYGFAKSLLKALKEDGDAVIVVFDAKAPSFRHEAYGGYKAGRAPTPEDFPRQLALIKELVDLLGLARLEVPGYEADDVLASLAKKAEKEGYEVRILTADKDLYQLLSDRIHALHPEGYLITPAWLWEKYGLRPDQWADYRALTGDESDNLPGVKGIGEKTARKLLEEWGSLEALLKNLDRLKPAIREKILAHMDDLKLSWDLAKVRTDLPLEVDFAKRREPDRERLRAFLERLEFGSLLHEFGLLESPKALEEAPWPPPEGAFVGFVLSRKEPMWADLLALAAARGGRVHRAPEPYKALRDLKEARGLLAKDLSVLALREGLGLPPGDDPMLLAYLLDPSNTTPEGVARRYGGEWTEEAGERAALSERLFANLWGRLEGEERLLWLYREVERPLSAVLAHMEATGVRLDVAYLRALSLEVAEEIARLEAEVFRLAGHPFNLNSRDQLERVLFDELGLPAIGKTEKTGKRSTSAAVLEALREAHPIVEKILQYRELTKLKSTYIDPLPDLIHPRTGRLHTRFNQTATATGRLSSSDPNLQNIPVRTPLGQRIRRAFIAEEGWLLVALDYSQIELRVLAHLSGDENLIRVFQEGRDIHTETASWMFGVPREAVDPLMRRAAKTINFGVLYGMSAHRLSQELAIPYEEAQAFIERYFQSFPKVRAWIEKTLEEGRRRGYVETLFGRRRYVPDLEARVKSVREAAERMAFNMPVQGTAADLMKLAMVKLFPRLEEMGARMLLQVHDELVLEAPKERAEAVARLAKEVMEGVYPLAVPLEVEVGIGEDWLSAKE
T6 sequence (P19821 other isoform, or with tags, fused parts or gaps): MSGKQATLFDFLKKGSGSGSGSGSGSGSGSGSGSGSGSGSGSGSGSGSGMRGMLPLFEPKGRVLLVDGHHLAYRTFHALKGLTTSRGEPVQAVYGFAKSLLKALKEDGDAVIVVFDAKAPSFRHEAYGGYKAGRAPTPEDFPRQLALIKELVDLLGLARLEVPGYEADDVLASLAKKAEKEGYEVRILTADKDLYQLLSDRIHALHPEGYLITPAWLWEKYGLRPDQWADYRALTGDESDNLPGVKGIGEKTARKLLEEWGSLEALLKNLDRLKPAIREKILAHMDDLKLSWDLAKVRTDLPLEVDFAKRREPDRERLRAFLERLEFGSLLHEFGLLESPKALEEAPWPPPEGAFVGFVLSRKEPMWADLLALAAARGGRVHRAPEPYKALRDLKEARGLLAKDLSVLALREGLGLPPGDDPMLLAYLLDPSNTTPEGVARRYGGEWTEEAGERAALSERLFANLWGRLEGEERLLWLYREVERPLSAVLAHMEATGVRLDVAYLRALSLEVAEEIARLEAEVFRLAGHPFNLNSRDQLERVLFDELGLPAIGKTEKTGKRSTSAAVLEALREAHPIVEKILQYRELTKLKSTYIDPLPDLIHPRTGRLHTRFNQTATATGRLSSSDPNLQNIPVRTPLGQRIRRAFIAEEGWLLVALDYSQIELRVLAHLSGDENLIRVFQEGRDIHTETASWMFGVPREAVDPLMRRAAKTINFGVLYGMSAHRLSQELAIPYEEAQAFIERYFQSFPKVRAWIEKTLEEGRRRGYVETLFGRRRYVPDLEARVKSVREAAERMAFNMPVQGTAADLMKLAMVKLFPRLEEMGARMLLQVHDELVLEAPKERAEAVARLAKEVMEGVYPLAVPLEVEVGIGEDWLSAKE
T1 sequence (P19821 other isoform, or with tags, fused parts or gaps): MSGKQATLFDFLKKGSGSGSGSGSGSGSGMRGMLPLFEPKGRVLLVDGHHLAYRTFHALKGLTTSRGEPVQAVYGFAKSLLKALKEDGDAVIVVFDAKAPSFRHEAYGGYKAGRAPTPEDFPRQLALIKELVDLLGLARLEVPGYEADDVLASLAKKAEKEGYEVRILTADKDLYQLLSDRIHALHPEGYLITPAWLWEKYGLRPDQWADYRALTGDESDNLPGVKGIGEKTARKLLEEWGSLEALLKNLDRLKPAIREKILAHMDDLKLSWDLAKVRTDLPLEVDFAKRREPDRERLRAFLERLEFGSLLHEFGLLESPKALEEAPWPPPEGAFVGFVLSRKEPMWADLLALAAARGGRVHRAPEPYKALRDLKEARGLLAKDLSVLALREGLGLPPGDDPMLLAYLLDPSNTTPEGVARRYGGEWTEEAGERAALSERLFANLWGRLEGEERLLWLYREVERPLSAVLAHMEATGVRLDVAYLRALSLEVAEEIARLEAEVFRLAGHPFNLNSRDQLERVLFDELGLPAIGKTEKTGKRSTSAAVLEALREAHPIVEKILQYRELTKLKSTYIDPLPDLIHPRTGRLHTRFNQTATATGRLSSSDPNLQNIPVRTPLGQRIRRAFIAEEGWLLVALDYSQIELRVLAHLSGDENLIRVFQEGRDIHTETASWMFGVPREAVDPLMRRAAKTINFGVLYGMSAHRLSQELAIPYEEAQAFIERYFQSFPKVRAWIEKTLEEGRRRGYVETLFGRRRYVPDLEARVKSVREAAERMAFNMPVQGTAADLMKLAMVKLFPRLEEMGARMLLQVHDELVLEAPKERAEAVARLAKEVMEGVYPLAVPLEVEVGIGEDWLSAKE
T3 sequence (P19821 other isoform, or with tags, fused parts or gaps): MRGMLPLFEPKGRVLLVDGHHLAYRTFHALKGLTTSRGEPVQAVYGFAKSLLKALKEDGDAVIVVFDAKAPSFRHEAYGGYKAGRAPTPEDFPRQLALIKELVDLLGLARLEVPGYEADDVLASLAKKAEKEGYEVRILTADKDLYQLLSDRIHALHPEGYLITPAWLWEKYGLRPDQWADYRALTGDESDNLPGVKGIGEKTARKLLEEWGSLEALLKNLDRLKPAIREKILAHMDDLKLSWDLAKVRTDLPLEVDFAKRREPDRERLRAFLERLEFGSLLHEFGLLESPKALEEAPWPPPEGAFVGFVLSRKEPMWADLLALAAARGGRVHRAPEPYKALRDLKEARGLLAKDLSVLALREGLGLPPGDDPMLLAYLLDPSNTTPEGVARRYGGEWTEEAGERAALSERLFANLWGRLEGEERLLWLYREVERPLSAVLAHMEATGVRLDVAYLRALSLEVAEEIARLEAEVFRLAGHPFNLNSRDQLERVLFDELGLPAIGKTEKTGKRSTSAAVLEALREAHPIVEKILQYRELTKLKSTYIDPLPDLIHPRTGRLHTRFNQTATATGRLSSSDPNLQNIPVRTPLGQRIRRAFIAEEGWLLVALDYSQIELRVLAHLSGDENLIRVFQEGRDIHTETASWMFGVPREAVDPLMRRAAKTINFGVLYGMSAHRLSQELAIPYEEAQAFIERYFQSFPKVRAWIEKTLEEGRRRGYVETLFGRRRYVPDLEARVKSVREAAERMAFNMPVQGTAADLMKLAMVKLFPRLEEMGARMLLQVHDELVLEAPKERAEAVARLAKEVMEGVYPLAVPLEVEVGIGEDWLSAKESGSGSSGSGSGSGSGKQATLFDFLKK
T2 sequence (P19821 other isoform, or with tags, fused parts or gaps): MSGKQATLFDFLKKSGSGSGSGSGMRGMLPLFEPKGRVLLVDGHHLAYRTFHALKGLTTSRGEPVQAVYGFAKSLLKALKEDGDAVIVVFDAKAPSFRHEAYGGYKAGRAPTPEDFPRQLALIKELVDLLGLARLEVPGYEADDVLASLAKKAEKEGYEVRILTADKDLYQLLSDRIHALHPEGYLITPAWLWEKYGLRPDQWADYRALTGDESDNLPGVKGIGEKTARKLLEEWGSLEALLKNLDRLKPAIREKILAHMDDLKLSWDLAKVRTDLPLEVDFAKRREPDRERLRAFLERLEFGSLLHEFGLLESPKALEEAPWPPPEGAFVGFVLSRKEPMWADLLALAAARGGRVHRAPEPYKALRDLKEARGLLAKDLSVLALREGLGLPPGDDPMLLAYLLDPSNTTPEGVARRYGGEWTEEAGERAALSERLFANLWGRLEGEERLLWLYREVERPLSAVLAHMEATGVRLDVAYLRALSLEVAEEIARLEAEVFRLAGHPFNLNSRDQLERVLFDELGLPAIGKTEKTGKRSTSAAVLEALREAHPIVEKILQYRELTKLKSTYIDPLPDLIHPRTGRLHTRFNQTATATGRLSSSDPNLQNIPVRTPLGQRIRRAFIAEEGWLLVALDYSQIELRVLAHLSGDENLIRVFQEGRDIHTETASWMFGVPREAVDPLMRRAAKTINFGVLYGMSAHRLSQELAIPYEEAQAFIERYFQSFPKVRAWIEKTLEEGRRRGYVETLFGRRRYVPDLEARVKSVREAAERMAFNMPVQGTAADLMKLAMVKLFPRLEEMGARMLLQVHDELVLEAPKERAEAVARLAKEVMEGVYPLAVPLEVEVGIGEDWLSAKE

B1: PCNA from Pyrococcus furiosus (other, UniProt O73947 1-249, looked up)
chain: MPFEIVFEGAKEFAQLIDTASKLIDEAAFKVTEDGISMRAMDPSRVVLIDLNLPSSIFSKYEVVEPETIGVNMDHLKKILKRGKAKDTLILKKGEENFLEITIQGTATRTFRVPLIDVEEMEVDLPELPFTAKVVVLGEVLKDAVKDASLVSDSIKFIARENEFIMKAEGETQEVEIKLTLEDEGLLDIEVQEETKSAYGVSYLSDMVKGLGKADEVTIKFGNEMPMQMEYYIRDEGRLTFLLAPRVEE
notes: Wild-type PfuPCNA immobilised on a CM5 chip by amine coupling; also called PfuPCNA
In the case of B1, the dissociation constant (Kd) worked out at 240 nM in experiment [1]; 440 nM in experiment [2]; 2500 nM in experiment [3]; 200 nM in experiment [4]; 710 nM in experiment [5]; 250 nM in experiment [6].

What is called Kd is the concentration at which binding is half-saturated. A higher Kd goes with lower affinity.
